The text below walks through data of patent US20250027068.

The labels stand for the following.
B1: IdeZ2 (protein)
chain: EVVEVWPYGQNPNGKTEILSQTEDSESLQRLRDIEDFQAEKKMQNVVYTKWLDGVDVKDHDFRKIVDGNIAYYATPLLNGRGFYDINKDFNRDSDKCAAAVAANMFHYWLDINRDNVDRFLRQNPEKHGIIELPDGQLKLSDFLNTYESDHGYRDKSKLFDFISNNFNGPVWTDKLLDNYINGYAYNYKYGRTIEDPTKNTSKINFFKEVFNEKILTNNHSIRNQNEFSVLLSEALYTGKAIGLSYGPAGLRHSLGHIISVWGADLDADGNVVAIYVTDSDDKKLTIGDERVGLKRYKISTDDENRLRLTAYEETHNTGGQIRGLWTLDTGKYAWADYFDKTEQTGTDQAEQ
B2: IdeZ (protein)
chain: DDYQRNATEAYAKEVPHQITSVWTKGVTPLTPEQFRYNNEDVIHAPYLAHQGWYDITKAFDGKDNLLCGAATAGNMLHWWFDQNKTEIEAYLSKHPEKQKIIFNNQELFDLKAAIDTKDSQTNSQLFNYFRDKAFPNLSARQLGVMPDLVLDMFINGYYLNVFKTQSTDVNRPYQDKDKRGGIFDAVFTRGDQTTLLTARHDLKNKGLNDISTIIKQELTEGRALALSHTYANVSISHVINLWGADFNAEGNLEAIYVTDSDANASIGMKKYFVGINAHGHVAISAKKIEGENIGAQVLGLFTLSSGKDIWQKLS
B3: PRT-241 (protein)
chain: MVTSVWTKGVTPPANFTQGEDVFHAPYVANQGWYDITKTFNGKDDLLCGAATAGNMLHWWFDQNKDQIKRYLEEHPEKQKINFNGEQMFDVKEAIDTKNHQLDSKLFEYFKEKAFPNLSTKHLGVFPDHVIDMFINGYRLSLLNHGPTPVKEGSKDPRGGIFDAVFTRGDQSKLLTSRHDFKEKNLKEISDLIKKELTEGKALGLSHTYANVRINHVINLWGADFDSNGNLKAIYVTDSDSNASIGMKKYFVGVNSSGKVAISAKEIKEDNIGAQVLGLFTLSTGQDSWNQTN
B4: PRT-291 (protein)
chain: MVTSVWTKGVTPPADFTQGEDVFHAPYVANQGWYDITKTFNGKDDLLCGAATAGNMLHWWFDQNKEYIEAYLKKHPEKQKIMFGDQELLDVRKAINTKGSQKNSELFNYFRDKAFPNLSARRLGVMPDLVLDMFINGYYLNVTKTQTTDVNRTYQEKDKRGGIFDAVFTRGDQSKLLTSRHDFKEKGLKEISDLIKQELTEGKALGLSHTYANVRLNHVINLWGADFDSDGNLKAIYVTDSDSNASIGMKKYFVGVNSSGKVAISAKEIKEDNIGAQVLGLFTLSTGQDIWNQTN
B5: PRT-299 (protein)
chain: MVTSVWTKGVTPPTDFIKGEDVFHAPYKAGQGWYDITKTFNGKDDLLCGAATAGNMLHWWFDQNKEYIEAYLKKHPEKQKIMFGDQELLDVRKAINTKGSQKNSELFNYFRDKAFPNLSARRLGVMPDLVLDMFINGYYLNVTKTQTTDVNRTYQEKDKRGGIFDAVFTRGDQSKLLTSRHDFKEKGLKEISDLIKQELTEGKALGLSHTYANVRIGHVINLWGADFDSDGNLKAIYVTDSDSNASIGMKKYFVGVNSSGKVAISAKEIKEDNIGAQVLGLFTLSTGQDIWNQTN
B6: PRT-283 (protein)
chain: MVTSVWTKGVTPPAKFTQGEDVFHAPYDANQGWYDITKTFNGKDDLLCGAATAGNMLHWWFDQNKEKIEAYLKKHPDKQKIMFGDQELLDVRKVINTKGDQTNSELFNYFRDKAFPNLSARRIGVMPDLVLDMFINGYYLNVYKTQTTDVNRTYQEKDRRGGIFDAVFTRGDQSKLLTSRHDFKEKNLKEISDLIKKELTEGKALGLSHTYANVRISHVINLWGADFDSNGNLKAIYVTDSDSNASIGMKKYFVGVNSAGKVAISAKEIKEDNIGAQVLGLFTLSTGQDSWNQTN
B7: PRT-275 (protein)
chain: MVTSVWTKGVTPPTDFIYGEDVLHAPYKAGQGWYDITKLFNGKDNLLCGAATAGNMLHWWFDQNKEQIENYLKKHPEKQKIIFNNQELFDLKAAIDTKDSQLDSKLFDYFKEKAFPNLSTKHLGVFPDHVIDMFINGYRLSLLNHGPTPVKRGSKDKRGGIFDAVFTRGVQSKLLTNRHDLKNKTLKEISDLIKQELTEGKALGISHTYANGRINHVINLWGADFDAEGNLEAIYVTDSDTNPSIGMKKYFVGVNSSGKVAISAKEIEEDNIGAQVLGLFTLSTGQDIWNQTN
B8: PRT-251 (protein)
chain: MVTSVWTKGVTPPTNFTYGEDVLHAPYVANQGWYDITKTFNGKDDLLCGAATAGNMLHWWFDQNKEQIENYLKKHPEKQKINFNGEQMFDVKEAIDTKDSQLDSKLFEYFLEKAFPNLSTKHLGVFPDHVIDMFINGYRLSLLNHGPTPVKRGSKDPRGGIFDAVFTRGDQSKLLTNRHDFKEKTLKEISDLIKQELTEGKALGISHTYANVRINHVINLWGADFDAEGNLEAIAVTDSDSNASIGMKKYFVGVNSSGKVAISAKEIEEDNIGAQVLGLFTLSTGQDIWNQTN
B9: PRT-259 (protein)
chain: MVTSVWTKGVTPPTNFTYGEDVLHAPYVANQGWYDITKTFNGKDNLLCGAATAGNMLHWWFDQNKEQIENYLKKHPEKQKINFNGEQLFDVKEAIDTKDSQLDSKLFEYFKEKAFPNLSTKHLGVFPDHVIDMFINGYRLSLLNHGPTPVKRGSKDKRGGIFDAVFTRGVQSKLLTNRHDFKEKTLKEISDLIKQELTEGKALGISHTYANVRINHVINLWGADFDAEGNLEAIYVTDSDTNASIGMKKYFVGVNSSGKVAISAKEIEEDNIGAQVLGLFTLSTGQDIWNQTN
B10: PRT-267 (protein)
chain: MVTSVWTKGVTPPTDFIYGEDVLHAPYKAGQGWYDITKTFNGKDDLLCGAATAGNMLHWWFDQNKEQIENYLKKHPEKQKINFNGEQMFDVKEAIDTKDSQLDSKLFDYFKEKAFPNLSTKHLGVFPDHVIDMFINGYRLSLLNHGPTPVKRGSKDPRGGIFDAVFTRGDQSKLLTNRHDLKNKTLKEISDLIKQELTEGKALGISHTYANVRINHVINLWGADFDAEGNLEAIYVTDSDSNPSIGMKKYFVGVNSSGKVAISAKEIEEDNIGAQVLGLFTLSTGQDIWNQTN
B11: PRT-307 (protein)
chain: MQITSVWTKGVTPLTPEQFRKNNEDVIHAPYLAHQGWYDITKAFDGKDNLLCGAATAGNMLHWWFDQNKTEIEAYLSKHPEKQKIIFNNQELFDLKAAIDTKDSQTNSQLFNYFRDKAFPNLSARQLGVMPDLVLDMFINGYYLNVGKTQSTDVNRPYQDKDKRGGIFDAVFTRGDQTTLLTARHDLKNKGLNDISTIIKQELTEGRALALSHTYANVSISHVINLWGADFNAEGNLEAIYVTDSDANASIGMKKYFVGRNAHGHVAISAKKIEGENIGAQVLGLFTLSSGKDIWQKLS
B12: PRT-315 (protein)
chain: MQITSVWTKGVTPLTPEQFRENNEDVIHAPYLAHQGWYDITKAFDGKDNLLCGAATAGNMLHWWFDQNKTEIEAYLSKHPEKQKIIFNNQELFDLKAAIDTKDSQTNSQLFDYFRDKAFPNLSARQLGVMPDLVLDMFINGYYLNVFKTQSTDVNRPYQDKDKRGGIFDAVFTRGDQTTLLTARHDLKNKGLNDISTIIKQELTEGRALALSHTYANVSISHVINLWGADFNAEGELEAIYVTDSDANPSIGMKKYFVGRNAHGHVAISAKKIEGENIGAQVLGLFTLSSGKDIWQKLS
B13: PRT-243 (protein)
chain: MVTSVWTKGVTPPANFTQGEDVFHAPYVANQGWYDITKLFNGKDDLLCGAATAGNMLHWWFDQNKDQIKRYLEEHPEKQKINFNGEQMFDVKEAIDTKNHQLDSKLFDYFKEKAFPNLSTKHLGVFPDHVIDMFINGYRLSLLNHGPTPVKEGSKDPRGGIFDAVFTRGDQSKLLTSRHDFKEKNLKEISDLIKKELTEGKALGLSHTYANGRINHVINLWGADFDSNGNLKAIYVTDSDSNPSIGMKKYFVGVNSSGKVAISAKEIKEDNIGAQVLGLFTLSTGQDSWNQTN

The target of one data set is pooled human IgG.
For B1, the Enzyme Activity Endpoint Assay (purified): Fab'2 stood at 1340 ng/µL, the Enzyme Activity Endpoint Assay (purified): Fc is 566 ng/µL, the Enzyme Activity Endpoint Assay (purified): IgG turned out to be 0 ng/µL and the Enzyme Activity Endpoint Assay (purified): scIgG was determined as 0 ng/µL.
As for B2, the Enzyme Activity Endpoint Assay (purified): Fab'2 was found to be 1290 ng/µL, the Enzyme Activity Endpoint Assay (purified): Fc was found to be 481 ng/µL, the Enzyme Activity Endpoint Assay (purified): IgG was found to be 0 ng/µL and the Enzyme Activity Endpoint Assay (purified): scIgG came to 0 ng/µL.
Take B3: the Enzyme Activity Endpoint Assay (purified): Fab'2 is 731 ng/µL, the Enzyme Activity Endpoint Assay (purified): Fc worked out at 406 ng/µL, the Enzyme Activity Endpoint Assay (purified): IgG was 0 ng/µL and the Enzyme Activity Endpoint Assay (purified): scIgG was 0 ng/µL.

Another data set has as its target pooled human IgG (human IgG1,2,3 and 4).
On to B4, for which the Enzyme Activity Endpoint Assay: Fab′2 is 1020 ng/µL, the Enzyme Activity Endpoint Assay: Fc amounted to 420 ng/µL, the Enzyme Activity Endpoint Assay: IgG amounted to 0 ng/µL and the Enzyme Activity Endpoint Assay: scIgG was 0 ng/µL.
For B5, the Enzyme Activity Endpoint Assay: Fab′2 was 549 ng/µL, the Enzyme Activity Endpoint Assay: Fc was 378 ng/µL, the Enzyme Activity Endpoint Assay: IgG came out at 368 ng/µL and the Enzyme Activity Endpoint Assay: scIgG was 0 ng/µL.
For B6 the same measures were 380 ng/µL, 271 ng/µL, 186 ng/µL and 91 ng/µL.
For B7, in that order: 169 ng/µL, 257 ng/µL, 97 ng/µL and 589 ng/µL.
For B8, in that order: 1070 ng/µL, 444 ng/µL, 0 ng/µL and 0 ng/µL.
In the case of B9, the Enzyme Activity Endpoint Assay: Fab′2 worked out at 1100 ng/µL, the Enzyme Activity Endpoint Assay: Fc was found to be 453 ng/µL, the Enzyme Activity Endpoint Assay: IgG came to 0 ng/µL and the Enzyme Activity Endpoint Assay: scIgG was 0 ng/µL.
With B10, the Enzyme Activity Endpoint Assay: Fab′2 amounted to 1090 ng/µL, the Enzyme Activity Endpoint Assay: Fc amounted to 438 ng/µL, the Enzyme Activity Endpoint Assay: IgG came to 0 ng/µL and the Enzyme Activity Endpoint Assay: scIgG came out at 0 ng/µL.
Consider B11, for which the Enzyme Activity Endpoint Assay: Fab′2 worked out at 215 ng/µL, the Enzyme Activity Endpoint Assay: Fc is 290 ng/µL, the Enzyme Activity Endpoint Assay: IgG amounted to 138 ng/µL and the Enzyme Activity Endpoint Assay: scIgG came to 614 ng/µL.
For B12 the same measures were 981 ng/µL, 408 ng/µL, 0 ng/µL and 0 ng/µL.
For B13 the same measures were 967 ng/µL, 430 ng/µL, 25 ng/µL and 0 ng/µL.
